In article PMC10529061:

Biological target: His6-tagged CHIP (C-terminus of Hsc70-interacting protein) (UniProt Q9UNE7)
Assay: BLI

UniProt Q9UNE7, sequence (Q9UNE7 whole entry): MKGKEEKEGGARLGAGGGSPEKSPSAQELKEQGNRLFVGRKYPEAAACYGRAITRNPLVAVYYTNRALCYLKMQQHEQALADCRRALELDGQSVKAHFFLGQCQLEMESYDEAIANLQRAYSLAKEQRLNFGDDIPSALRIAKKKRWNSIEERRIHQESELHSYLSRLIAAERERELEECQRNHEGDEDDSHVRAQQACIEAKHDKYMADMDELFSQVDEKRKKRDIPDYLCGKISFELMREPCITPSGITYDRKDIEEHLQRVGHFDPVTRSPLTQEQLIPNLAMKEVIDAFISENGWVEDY

Substance: E2 (UbcH5b), wild type (from UniProt P62837 1-147) (enzyme; other documents disagree on this pair)
- Kd: 6.28 µM
